Reference: patent US20150344570A1 (published 2015)

B1: GpH7-A5/GpH7-B3 variant E269_01G/GpL16-k0 (antibody, human IgG1, kappa)
heavy 1: not shown
heavy 2: not shown
light: DIVMTQSPLSLPVTPGEPASISCQASESLVHSNRNTYLHWYLQKPGQSPQLLIYKVSNRFSGVPDRFSGSGSGTDFTLKISRVEAEDVGVYYCSQNTHVPPTFGQGTKVEIERTVAAPSVFIFPPSDEQLKSGTASVVCLLNNFYPREAKVQWKVDNALQSGNSQESVTEQDSKDSTYSLSSTLTLSKADYEKHKVYACEVTHQGLSSPVTKSFNRGEC
notes: also called He Ab E269_01G
B2: GpH7-A5/GpH7-B3 variant E269_08L/GpL16-k0 (antibody, human IgG1, kappa)
heavy 1: not shown
heavy 2: not shown
light: B1 light
notes: also called He Ab E269_08L
B3: GpH7-A5/GpH7-B3 variant A330_05P/GpL16-k0 (antibody, human IgG1, kappa)
heavy 1: not shown
heavy 2: not shown
light: B1 light
notes: also called He Ab A330_05P
B4: GpH7-A5/GpH7-B3 variant A330_11K/GpL16-k0 (antibody, human IgG1, kappa)
heavy 1: not shown
heavy 2: not shown
light: B1 light
notes: also called He Ab A330_11K
B5: GpH7-A5/GpH7-B3 variant A327_06M/GpL16-k0 (antibody, human IgG1, kappa)
heavy 1: not shown
heavy 2: not shown
light: B1 light
notes: also called He Ab A327_06M
B6: GpH7-A5/GpH7-B3 variant A330_08L/GpL16-k0 (antibody, human IgG1, kappa)
heavy 1: not shown
heavy 2: not shown
light: B1 light
notes: also called He Ab A330_08L
B7: GpH7-A5/GpH7-B3 variant E269_15Y/GpL16-k0 (antibody, human IgG1, kappa)
heavy 1: not shown
heavy 2: not shown
light: B1 light
notes: also called He Ab E269_15Y
B8: GpH7-A5/GpH7-B3 variant E269_07I/GpL16-k0 (antibody, human IgG1, kappa)
heavy 1: not shown
heavy 2: not shown
light: B1 light
notes: also called He Ab E269_07I
B9: GpH7-A5/GpH7-B3 variant E269_05P/GpL16-k0 (antibody, human IgG1, kappa)
heavy 1: not shown
heavy 2: not shown
light: B1 light
notes: also called He Ab E269_05P
B10: GpH7-A5/GpH7-B3 variant E269_02A/GpL16-k0 (antibody, human IgG1, kappa)
heavy 1: not shown
heavy 2: not shown
light: B1 light
notes: also called He Ab E269_02A
B11: GpH7-A5/GpH7-B3 variant A327_10E/GpL16-k0 (antibody, human IgG1, kappa)
heavy 1: not shown
heavy 2: not shown
light: B1 light
notes: also called He Ab A327_10E
B12: GpH7-A5/GpH7-B3 variant E269_03V/GpL16-k0 (antibody, human IgG1, kappa)
heavy 1: not shown
heavy 2: not shown
light: B1 light
notes: also called He Ab E269_03V
B13: GpH7-A5/GpH7-B3 variant A327_07I/GpL16-k0 (antibody, human IgG1, kappa)
heavy 1: not shown
heavy 2: not shown
light: B1 light
notes: also called He Ab A327_07I
B14: GpH7-A5/GpH7-B3 variant A327_13S/GpL16-k0 (antibody, human IgG1, kappa)
heavy 1: not shown
heavy 2: not shown
light: B1 light
notes: also called He Ab A327_13S
B15: GpH7-A5/GpH7-B3 variant A327_03V/GpL16-k0 (antibody, human IgG1, kappa)
heavy 1: not shown
heavy 2: not shown
light: B1 light
notes: also called He Ab A327_03V
B16: GpH7-A5/GpH7-B3 variant E269_06M/GpL16-k0 (antibody, human IgG1, kappa)
heavy 1: not shown
heavy 2: not shown
light: B1 light
notes: also called He Ab E269_06M
B17: GpH7-A5/GpH7-B3 variant A330_14T/GpL16-k0 (antibody, human IgG1, kappa)
heavy 1: not shown
heavy 2: not shown
light: B1 light
notes: also called He Ab A330_14T
B18: GpH7-A5/GpH7-B3 variant E269_09D/GpL16-k0 (antibody, human IgG1, kappa)
heavy 1: not shown
heavy 2: not shown
light: B1 light
notes: also called He Ab E269_09D
B19: GpH7-A5/GpH7-B3 variant E269_13S/GpL16-k0 (antibody, human IgG1, kappa)
heavy 1: not shown
heavy 2: not shown
light: B1 light
notes: also called He Ab E269_13S
B20: GpH7-A5/GpH7-B3 variant E269_16H/GpL16-k0 (antibody, human IgG1, kappa)
heavy 1: not shown
heavy 2: not shown
light: B1 light
notes: also called He Ab E269_16H
B21: GpH7-A5/GpH7-B3 variant E269_04F/GpL16-k0 (antibody, human IgG1, kappa)
heavy 1: not shown
heavy 2: not shown
light: B1 light
notes: also called He Ab E269_04F
B22: GpH7-A5/GpH7-B3 variant A330_16H/GpL16-k0 (antibody, human IgG1, kappa)
heavy 1: not shown
heavy 2: not shown
light: B1 light
notes: also called He Ab A330_16H
B23: GpH7-A5/GpH7-B3 variant A327_09D/GpL16-k0 (antibody, human IgG1, kappa)
heavy 1: not shown
heavy 2: not shown
light: B1 light
notes: also called He Ab A327_09D
B24: GpH7-A5/GpH7-B3 variant E269_14T/GpL16-k0 (antibody, human IgG1, kappa)
heavy 1: not shown
heavy 2: not shown
light: B1 light
notes: also called He Ab E269_14T
B25: GpH7-A5/GpH7-B3 variant A330_09D/GpL16-k0 (antibody, human IgG1, kappa)
heavy 1: not shown
heavy 2: not shown
light: B1 light
notes: also called He Ab A330_09D
B26: GpH7-B3 variant K334_06M/GpL16-k0 (antibody, human IgG1, kappa)
heavy: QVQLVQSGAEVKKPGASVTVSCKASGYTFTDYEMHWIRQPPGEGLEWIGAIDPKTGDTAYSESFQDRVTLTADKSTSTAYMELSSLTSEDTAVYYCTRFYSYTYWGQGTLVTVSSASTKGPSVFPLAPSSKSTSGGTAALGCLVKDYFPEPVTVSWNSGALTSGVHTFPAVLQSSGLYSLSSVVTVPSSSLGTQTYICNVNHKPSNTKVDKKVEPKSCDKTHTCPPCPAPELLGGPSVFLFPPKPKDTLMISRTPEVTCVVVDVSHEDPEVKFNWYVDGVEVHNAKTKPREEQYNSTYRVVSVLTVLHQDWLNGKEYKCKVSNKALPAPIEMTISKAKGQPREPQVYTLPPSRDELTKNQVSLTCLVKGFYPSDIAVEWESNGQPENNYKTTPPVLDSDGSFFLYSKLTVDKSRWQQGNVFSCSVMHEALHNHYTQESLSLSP
light: B1 light
notes: also called Ho Ab K334_06M
B27: GpH7-B3 variant K334_10E/GpL16-k0 (antibody, human IgG1, kappa)
heavy: not shown
light: B1 light
notes: also called Ho Ab K334_10E
B28: GpH7-B3 variant L234_06M/GpL16-k0 (antibody, human IgG1, kappa)
heavy: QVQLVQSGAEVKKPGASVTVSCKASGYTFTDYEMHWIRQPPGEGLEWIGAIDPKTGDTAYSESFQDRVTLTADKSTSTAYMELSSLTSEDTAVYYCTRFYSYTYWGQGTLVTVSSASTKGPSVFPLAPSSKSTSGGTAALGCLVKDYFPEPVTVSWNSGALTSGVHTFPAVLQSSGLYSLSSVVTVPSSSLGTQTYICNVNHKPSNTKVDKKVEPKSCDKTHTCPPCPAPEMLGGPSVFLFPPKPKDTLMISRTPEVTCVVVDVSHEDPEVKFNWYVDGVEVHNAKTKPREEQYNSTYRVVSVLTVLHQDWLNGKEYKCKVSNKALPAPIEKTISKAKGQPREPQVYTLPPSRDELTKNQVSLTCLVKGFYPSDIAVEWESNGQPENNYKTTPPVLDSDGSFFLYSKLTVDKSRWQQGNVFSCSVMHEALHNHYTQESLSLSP
light: B1 light
notes: also called Ho Ab L234_06M
B29: GpH7-B3 variant L234_15Y/GpL16-k0 (antibody, human IgG1, kappa)
heavy: not shown
light: B1 light
notes: also called Ho Ab L234_15Y
B30: GpH7-B3 variant L234_03V/GpL16-k0 (antibody, human IgG1, kappa)
heavy: not shown
light: B1 light
notes: also called Ho Ab L234_03V
B31: GpH7-B3 variant Q295_11K/GpL16-k0 (antibody, human IgG1, kappa)
heavy: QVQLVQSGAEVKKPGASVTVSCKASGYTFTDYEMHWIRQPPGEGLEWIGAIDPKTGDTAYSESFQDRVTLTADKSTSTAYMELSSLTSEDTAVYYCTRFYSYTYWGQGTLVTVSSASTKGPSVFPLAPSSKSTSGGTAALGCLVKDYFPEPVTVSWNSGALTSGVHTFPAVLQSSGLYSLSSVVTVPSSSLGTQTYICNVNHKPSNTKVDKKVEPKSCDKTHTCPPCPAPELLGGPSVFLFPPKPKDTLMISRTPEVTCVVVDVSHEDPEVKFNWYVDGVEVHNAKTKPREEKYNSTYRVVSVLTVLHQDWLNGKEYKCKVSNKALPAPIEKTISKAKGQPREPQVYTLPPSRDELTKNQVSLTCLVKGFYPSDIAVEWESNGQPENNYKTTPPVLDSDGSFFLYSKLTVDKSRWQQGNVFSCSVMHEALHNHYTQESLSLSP
light: B1 light
notes: also called Ho Ab Q295_11K
B32: GpH7-B3 variant L234_04F/GpL16-k0 (antibody, human IgG1, kappa)
heavy: not shown
light: B1 light
notes: also called Ho Ab L234_04F
B33: GpH7-B3 variant P271_16H/GpL16-k0 (antibody, human IgG1, kappa)
heavy: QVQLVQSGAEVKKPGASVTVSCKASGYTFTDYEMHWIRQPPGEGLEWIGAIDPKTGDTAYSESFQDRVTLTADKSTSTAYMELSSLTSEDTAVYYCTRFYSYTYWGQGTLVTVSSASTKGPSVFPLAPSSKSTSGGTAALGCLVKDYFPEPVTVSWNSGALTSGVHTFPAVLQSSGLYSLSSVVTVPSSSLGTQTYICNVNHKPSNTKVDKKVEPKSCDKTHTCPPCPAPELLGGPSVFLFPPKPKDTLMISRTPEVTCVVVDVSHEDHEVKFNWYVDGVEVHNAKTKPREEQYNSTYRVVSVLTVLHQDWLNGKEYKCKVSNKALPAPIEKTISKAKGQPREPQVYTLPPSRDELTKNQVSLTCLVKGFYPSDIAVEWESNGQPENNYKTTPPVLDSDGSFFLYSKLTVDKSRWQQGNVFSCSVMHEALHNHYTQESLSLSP
light: B1 light
notes: also called Ho Ab P271_16H
B34: GpH7-B3 variant Q295_09D/GpL16-k0 (antibody, human IgG1, kappa)
heavy: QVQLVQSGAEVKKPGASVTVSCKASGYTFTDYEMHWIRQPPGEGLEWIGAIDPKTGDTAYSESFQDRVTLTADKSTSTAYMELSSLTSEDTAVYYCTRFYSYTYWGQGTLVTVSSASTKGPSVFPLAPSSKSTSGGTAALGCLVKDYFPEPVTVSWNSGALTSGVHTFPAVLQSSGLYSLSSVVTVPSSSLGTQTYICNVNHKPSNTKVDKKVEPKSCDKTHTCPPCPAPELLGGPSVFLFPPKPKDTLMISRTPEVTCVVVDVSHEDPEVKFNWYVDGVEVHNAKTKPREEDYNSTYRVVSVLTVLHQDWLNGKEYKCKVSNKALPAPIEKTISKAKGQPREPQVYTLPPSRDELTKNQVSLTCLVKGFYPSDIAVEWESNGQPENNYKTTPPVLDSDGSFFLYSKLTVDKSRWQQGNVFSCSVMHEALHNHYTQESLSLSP
light: B1 light
notes: also called Ho Ab Q295_09D
B35: GpH7-B3 variant P238_10E/GpL16-k0 (antibody, human IgG1, kappa)
heavy: not shown
light: B1 light
notes: also called Ho Ab P238_10E
B36: GpH7-B3 variant P271_02A/GpL16-k0 (antibody, human IgG1, kappa)
heavy: not shown
light: B1 light
notes: also called Ho Ab P271_02A
B37: GpH7-B3 variant P271_14T/GpL16-k0 (antibody, human IgG1, kappa)
heavy: not shown
light: B1 light
notes: also called Ho Ab P271_14T
B38: GpH7-B3 variant P238_06M/GpL16-k0 (antibody, human IgG1, kappa)
heavy: not shown
light: B1 light
notes: also called Ho Ab P238_06M
B39: GpH7-B3 variant L328_14T/GpL16-k0 (antibody, human IgG1, kappa)
heavy: not shown
light: B1 light
notes: also called Ho Ab L328_14T
B40: GpH7-B3 variant P329_01G/GpL16-k0 (antibody, human IgG1, kappa)
heavy: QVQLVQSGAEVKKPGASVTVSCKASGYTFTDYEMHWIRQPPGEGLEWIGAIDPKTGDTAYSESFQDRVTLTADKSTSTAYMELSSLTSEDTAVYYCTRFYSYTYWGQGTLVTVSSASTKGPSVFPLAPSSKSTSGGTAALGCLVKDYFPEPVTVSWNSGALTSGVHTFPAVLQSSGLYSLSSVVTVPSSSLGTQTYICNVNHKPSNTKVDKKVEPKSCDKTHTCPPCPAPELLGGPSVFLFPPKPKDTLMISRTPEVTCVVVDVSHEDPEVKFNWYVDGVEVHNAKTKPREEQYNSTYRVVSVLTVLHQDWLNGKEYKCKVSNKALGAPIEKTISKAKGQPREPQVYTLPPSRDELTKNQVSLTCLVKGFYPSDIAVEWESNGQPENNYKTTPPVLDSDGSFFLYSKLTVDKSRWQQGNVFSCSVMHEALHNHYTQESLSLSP
light: B1 light
notes: also called Ho Ab P329_01G
B41: GpH7-B3 variant K334_20W/GpL16-k0 (antibody, human IgG1, kappa)
heavy: not shown
light: B1 light
notes: also called Ho Ab K334_20W
B42: GpH7-B3 variant P271_03V/GpL16-k0 (antibody, human IgG1, kappa)
heavy: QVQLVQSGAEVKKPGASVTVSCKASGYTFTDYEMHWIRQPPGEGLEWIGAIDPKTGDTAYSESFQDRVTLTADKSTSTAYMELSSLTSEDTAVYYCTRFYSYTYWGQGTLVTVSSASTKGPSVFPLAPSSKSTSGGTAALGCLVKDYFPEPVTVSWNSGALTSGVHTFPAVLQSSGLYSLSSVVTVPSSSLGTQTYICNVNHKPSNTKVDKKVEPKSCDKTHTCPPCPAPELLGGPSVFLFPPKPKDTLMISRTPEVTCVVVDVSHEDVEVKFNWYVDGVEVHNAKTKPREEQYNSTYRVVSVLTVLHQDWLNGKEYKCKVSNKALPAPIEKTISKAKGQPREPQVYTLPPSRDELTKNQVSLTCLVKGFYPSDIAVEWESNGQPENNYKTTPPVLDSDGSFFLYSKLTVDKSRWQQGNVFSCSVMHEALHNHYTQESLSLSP
light: B1 light
notes: also called Ho Ab P271_03V
B43: GpH7-B3 variant P238_03V/GpL16-k0 (antibody, human IgG1, kappa)
heavy: not shown
light: B1 light
notes: also called Ho Ab P238_03V
B44: GpH7-B3 variant L234_07I/GpL16-k0 (antibody, human IgG1, kappa)
heavy: not shown
light: B1 light
notes: also called Ho Ab L234_07I
B45: GpH7-B3 variant P238_15Y/GpL16-k0 (antibody, human IgG1, kappa)
heavy: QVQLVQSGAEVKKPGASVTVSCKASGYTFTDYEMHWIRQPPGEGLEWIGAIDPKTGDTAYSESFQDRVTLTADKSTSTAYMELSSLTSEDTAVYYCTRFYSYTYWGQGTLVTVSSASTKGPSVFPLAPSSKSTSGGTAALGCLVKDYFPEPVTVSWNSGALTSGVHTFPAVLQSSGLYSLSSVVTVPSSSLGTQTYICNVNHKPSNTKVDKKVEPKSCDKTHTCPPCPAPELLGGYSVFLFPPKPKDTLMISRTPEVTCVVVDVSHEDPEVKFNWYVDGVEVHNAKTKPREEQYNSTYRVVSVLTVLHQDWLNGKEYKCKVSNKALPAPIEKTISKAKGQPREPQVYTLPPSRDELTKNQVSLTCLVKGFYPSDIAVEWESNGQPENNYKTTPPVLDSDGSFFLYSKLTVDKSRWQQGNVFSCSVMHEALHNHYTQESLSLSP
light: B1 light
notes: also called Ho Ab P238_15Y
B46: GpH7-B3 variant P238_08L/GpL16-k0 (antibody, human IgG1, kappa)
heavy: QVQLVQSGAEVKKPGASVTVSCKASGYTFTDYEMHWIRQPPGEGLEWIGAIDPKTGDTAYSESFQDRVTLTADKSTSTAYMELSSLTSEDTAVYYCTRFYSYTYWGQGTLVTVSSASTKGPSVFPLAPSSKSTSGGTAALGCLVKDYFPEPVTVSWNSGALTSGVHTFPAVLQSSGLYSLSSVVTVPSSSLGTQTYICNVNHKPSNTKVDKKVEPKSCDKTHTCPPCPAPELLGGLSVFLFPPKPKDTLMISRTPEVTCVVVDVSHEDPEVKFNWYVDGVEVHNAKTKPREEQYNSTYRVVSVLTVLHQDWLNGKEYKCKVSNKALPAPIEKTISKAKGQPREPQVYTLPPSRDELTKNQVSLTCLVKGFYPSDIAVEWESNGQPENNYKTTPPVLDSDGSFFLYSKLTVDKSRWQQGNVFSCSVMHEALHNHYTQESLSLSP
light: B1 light
notes: also called Ho Ab P238_08L
B47: GpH7-B3 variant P329_02A/GpL16-k0 (antibody, human IgG1, kappa)
heavy: not shown
light: B1 light
notes: also called Ho Ab P329_02A
B48: GpH7-B3 variant P271_15Y/GpL16-k0 (antibody, human IgG1, kappa)
heavy: not shown
light: B1 light
notes: also called Ho Ab P271_15Y
B49: GpH7-B3 variant L328_19Q/GpL16-k0 (antibody, human IgG1, kappa)
heavy: not shown
light: B1 light
notes: also called Ho Ab L328_19Q
B50: GpH7-B3 variant Q295_16H/GpL16-k0 (antibody, human IgG1, kappa)
heavy: not shown
light: B1 light
notes: also called Ho Ab Q295_16H
B51: GpH7-B3 variant L234_10E/GpL16-k0 (antibody, human IgG1, kappa)
heavy: not shown
light: B1 light
notes: also called Ho Ab L234_10E
B52: GpH7-B3 variant K334_12R/GpL16-k0 (antibody, human IgG1, kappa)
heavy: not shown
light: B1 light
notes: also called Ho Ab K334_12R
B53: GpH7-B3 variant L328_03V/GpL16-k0 (antibody, human IgG1, kappa)
heavy: not shown
light: B1 light
notes: also called Ho Ab L328_03V
B54: GpH7-B3 variant P238_04F/GpL16-k0 (antibody, human IgG1, kappa)
heavy: not shown
light: B1 light
notes: also called Ho Ab P238_04F
B55: GpH7-B3 variant L328_20W/GpL16-k0 (antibody, human IgG1, kappa)
heavy: not shown
light: B1 light
notes: also called Ho Ab L328_20W
B56: GpH7-B3 variant Q295_15Y/GpL16-k0 (antibody, human IgG1, kappa)
heavy: not shown
light: B1 light
notes: also called Ho Ab Q295_15Y
B57: GpH7-B3 variant L328_10E/GpL16-k0 (antibody, human IgG1, kappa)
heavy: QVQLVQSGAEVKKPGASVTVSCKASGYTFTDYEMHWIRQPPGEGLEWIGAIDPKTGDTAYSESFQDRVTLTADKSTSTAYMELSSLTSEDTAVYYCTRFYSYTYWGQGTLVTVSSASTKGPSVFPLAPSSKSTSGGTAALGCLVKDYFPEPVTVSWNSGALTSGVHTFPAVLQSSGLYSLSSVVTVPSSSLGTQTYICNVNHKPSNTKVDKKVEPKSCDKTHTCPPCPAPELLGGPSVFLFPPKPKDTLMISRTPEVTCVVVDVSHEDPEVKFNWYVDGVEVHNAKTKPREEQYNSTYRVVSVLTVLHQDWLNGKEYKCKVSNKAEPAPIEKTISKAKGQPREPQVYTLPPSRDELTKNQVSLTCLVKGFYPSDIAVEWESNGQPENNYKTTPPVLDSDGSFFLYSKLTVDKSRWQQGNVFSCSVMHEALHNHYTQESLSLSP
light: B1 light
notes: also called Ho Ab L328_10E

These binders were tested against T1, FcγRIa (human, UniProt P12314 16-292) (assay: SPR (Biacore); He Ab relative to HeCon Ab = 100).
T1 construct: extracellular domain; also called FcgRI; 1a
T1 sequence (P12314 16-292): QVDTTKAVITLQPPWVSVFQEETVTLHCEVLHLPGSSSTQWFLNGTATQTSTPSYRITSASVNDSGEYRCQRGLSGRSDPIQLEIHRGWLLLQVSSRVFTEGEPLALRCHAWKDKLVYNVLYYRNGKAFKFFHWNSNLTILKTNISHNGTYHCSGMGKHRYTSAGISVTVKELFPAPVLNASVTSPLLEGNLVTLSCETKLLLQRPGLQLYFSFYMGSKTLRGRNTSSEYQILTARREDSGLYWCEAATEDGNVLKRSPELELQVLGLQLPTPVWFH
Procedure: (§1) Analysis of interaction between objective antibody and the FcγR was carried out using Biacore T100 (GE Healthcare). HBS-EP+ (GE Healthcare) was used as the running buffer, and the measurement temperature was set to 25° C. Chips produced by immobilizing the antigen peptide by the amine coupling method to a Series S Sencor Chip CM5 (GE Healthcare), or alternatively, chips produced by allowing preliminarily biotinylated antigen peptides to interact with and immobilize onto a Series S Sensor Chip SA (certified) (GE Healthcare) were used. Antibodies of interest were captured onto an antigen peptide-immobilized chip, and allowed to interact to each FcγR diluted with running buffer. To regenerate and repeatedly use the chip, the antibodies captured on the chip were washed off by reacting 10 mM glycine-HCl, pH 1.5.

He/Con_1a | Binder
104 % of control | B1
104 % of control | B2
101 % of control | B3
103 % of control | B4
103 % of control | B5
107 % of control | B6
106 % of control | B7
103 % of control | B8
102 % of control | B9
104 % of control | B10
103 % of control | B11
103 % of control | B12
104 % of control | B13
102 % of control | B14
103 % of control | B15
104 % of control | B16
105 % of control | B17
107 % of control | B18
103 % of control | B19
106 % of control | B20
103 % of control | B21
106 % of control | B22
103 % of control | B23
106 % of control | B24
109 % of control | B25

These binders were tested against T1, FcγRIa (assay: SPR (Biacore); Ho Ab relative to HoCon Ab = 100).
Procedure: as §1

Ho/Con_1a | Binder
104 % of control | B26
107 % of control | B27
96.5 % of control | B28
98.9 % of control | B29
98.2 % of control | B30
99.9 % of control | B31
93.5 % of control | B32
99.4 % of control | B33
96.8 % of control | B34
91.8 % of control | B35
102 % of control | B36
99.5 % of control | B37
100 % of control | B38
98.6 % of control | B39
89.5 % of control | B40
104 % of control | B41

Ho/Con_1a | Binder
102 % of control | B42
97.9 % of control | B43
99.5 % of control | B44
99 % of control | B45
100 % of control | B46
98.2 % of control | B47
99.4 % of control | B48
99.3 % of control | B49
99.1 % of control | B50
79.6 % of control | B51
102 % of control | B52
99.2 % of control | B53
98.7 % of control | B54
99.9 % of control | B55
97 % of control | B56
101 % of control | B57
